Values joined by “and” are separate entries in the source; they are usually repeats but may differ in a detail not shown here. Equal values may be shown once. Read-outs that look alike come from different tables or passages of the source.
B1: MON-HT55: engineered oxygenase protein, amino acid sequence SEQ ID NO:11 (protein)
chain: MHAALSPLSQRFERIAVQPLTGVLGAEITGVDLREPLDDSTWNEILDAFHTYQVIYFPGQAITNEQHIAFSRRFGPVDPVPLLKSIEGYPEVQMIRREANESGRVIGENWHTDSTFLDAPPAAVVMYAKEIPPYGGDTLFTSMYTAWETLSPTMQATIEGLNVVHSATRVFGSLYQAQNRRFSNTSVKVMDVDAGDRETVHPLVVTHPETGRKGLYVNQVYCQRIEGMSEKESEPLLSFLFAHATKPEFTCRVRWQEGDVLVWDNLCTQHYAVPDYAGKFRYLTRTTVGGVRPAR
B2: MON-HT51: engineered oxygenase protein, amino acid sequence SEQ ID NO:1 (protein)
chain: MHAALSPLSQRFERIAVQPLTGVLGAEITGVDLREPLSDSTWNEILDAFHTYQVIYFPGQAITNEQHIAFSRRFGPVDPVPLLKSIEGYPEVQMIRREANESGRVIGDDWHTDSSFLDAPPAAVVMRAIDVPEHGGDTGFLSMYTAYDALSDGLKKLISGLNVVHSATRVFGSLYQAQNRRFSNTSVKVMDVADGDRETVHPLVVTHPGSGRKGLYVNQVYCQRIEGMSEKESEPLLSFLFAHATKPEFTCRVRWKKDQVLVWDNLCTMHYAINDYHGQTRILHRTTVGGVRPAR

Tests used:
transgenic maize plants = assay: R1 trait efficacy field trial (quizalofop-P and haloxyfop); assay type: in vivo; settings: 2× quizalofop-P pre-plant, 2× haloxyfop V4, 2× quizalofop-P V8
Protocol: To assess the effect of using a CTP to target the engineered protein to the plant cell chloroplast, transgenic plants comprising a transgene insert with and without a CTP operably linked to the protein-coding sequence were compared. […] This unexpected finding was tested again in trait efficacy field trials with R1 plants comprising either MON-HT51 with or without a CTP operably linked to the protein-coding sequence or MON-HT55 with or without a CTP operably linked to the protein-coding sequence. These R1 plants were single-copy, but were still segregating. In this field trial, seed was planted in the field and treated as follows: 2× (0.16 lb ai/acre) quizalofop-P at pre-plant, 2× (0.14 lb ai/acre) haloxyfop at V4 growth stage, then 2× quizalofop-P at V8 growth stage. A higher percentage of plants comprising a CTP operably linked to the protein-coding sequence survived quizalofop-P and haloxyfop applications and had lower injury scores compared to plants not comprising a CTP operably linked to the protein-coding sequence. This confirmed the unexpected finding that a CTP operably linked to the protein-coding sequence confers higher plant tolerance to herbicide application for the engineered proteins.

[1] = enzyme kinetic measurements with purified protein; assay type: biochemical; settings: for Km: 0-1280 uM substrate; for Vmax Fenoxaprop / Vmax Fluazifop / Vmax Haloxyfop / Vmax Quizalofop-P: relative values
Protocol: The high-throughput herbicide degradation enzyme assay was designed to assay the enzymatic activity of the engineered proteins towards various herbicides using crude bacterial extract. The engineered protein's oxygenase activity (that is, its enzymatic activity) was measured by an end point colorimetric assay utilizing detection of phenol products through measurement of absorbance at 510 nm from 4-aminoantipyrine and potassium ferricyanide. This assay was based on the assay described in Fukomori and Hausinger, Journal of Biological Chemistry (1993) 268(32):24311-24317. Enzyme reactions were assayed in 96-well plates in a total volume of 150ul that contained: 20 mM MOPS pH 6.75, 50-200 uM NH4FeSO4, 50-200 uM sodium ascorbate, 1 mM alpha-ketoglutarate (aKG), 10 ul of E. coli cell lysate containing expressed engineered protein, and substrate (either an AOPP herbicide or phenoxy acid herbicide). […] Absorbance measurements were made on a standard laboratory spectrometer. Assays were scaled as needed to enhance throughput. Standard curves were generated using purified protein or product standards.
Further protein characterization, such as Km, Vmax, and crystal structure analysis, was performed using the five engineered proteins from Table 2. For this detailed analysis, purified protein was prepared as follows: 2 ml overnight cultures of E. coli expressing a transgene encoding a given MON-HT protein were used to inoculate 500 ml of broth and grown at 37° C. for 4 hours followed by culture at 15° C. for approximately 36 hours. Then 250 ml of the 500 ml bacterial culture was pelleted by centrifugation and resuspended in 25 ml of extraction buffer (20 mM Tris, pH 7.8, 300 mM NaCl, 5 mM beta-mercaptoethanol (BME), 20 mM imidazole (Fluka/Sigma-Aldrich, St. Louis, MO), 125 units/ml of benzonase and 10K units/ml of lysozyme (Novagen, Darmstadt, Germany). The cell slurry was passed through a cell disruptor once at 20000 psi and then this cell lysate was clarified by centrifugation at 35,000×g for 20 min at 4° C. The supernatant containing the soluble His-tagged proteins was used for protein purification. For this purification, the supernatant was applied to a 1 ml HisTrap™ FF column (Nickel Sepharose) (GE Healthcare, Piscataway, NJ) using an AKTaxpress™ system (GE Healthcare, Piscataway, NJ) following the standard manufacturer's protocol. The wash buffer consisted of: 20 mM Tris pH 7.8, 300 mM NaCl, 20 mM imidazole and 5 mM BME. The composition of elution buffer was the same as the wash buffer except with 500 mM imidazole. The eluate from the nickel column was desalted on a Quick Spin Protein Sephadex G-25 fine column (Roche Applied Science, Indianapolis, IN) following the manufacturer's protocol. The eluted protein was in buffer consisting of: 20 mM Tris pH 7.8, 50 mM NaCl and 5 mM BME. Protein extract purity was assessed by SDS-PAGE analysis. Protein concentration was determined by Bradford assay using Bio-Rad Protein Assay dye reagent (Biorad, Hercules, CA, cat no 500-0006).
Purified protein for the five engineered proteins was analyzed using the enzyme assay described in this Example 1, but with four different AOPP herbicides as substrates: quizalofop-P, haloxyfop, fenoxaprop, and fluazifop. Standard curves were generated using 2,4-dichlorophenol (2,4-DCP), which was used to produce a general phenol standard curve. The amount of phenol generated in the assay by the engineered proteins was calculated based on this standard curve. The controls were purified wild-type enzyme, no enzyme, and no substrate. Enzyme kinetic measurements of the five engineered proteins was done using 0, 20, 40, 80, 160, 320, 640, or 1280 uM of quizalofop-P, haloxyfop, fenoxaprop, or fluazifop herbicides.

Molecule	Average % Herbicide Injury (transgenic maize plants; CTP No)	Average % Herbicide Injury (transgenic maize plants; CTP Yes)	Km ([1]; read-out: Km Fenoxaprop) [µM]	Km ([1]; read-out: Km Fluazifop) [µM]	Km ([1]; read-out: Km Haloxyfop) [µM]	Km ([1]; read-out: Km Quizalofop-P) [µM]	Vmax Fenoxaprop [1]	Vmax Fluazifop [1]	Vmax Haloxyfop [1]	Vmax Quizalofop-P [1]
B1	49% and 90%	24% and 25%	200	50	450	250	450	320	190	320
B2	95%	35%	870	4	250	570	180	12	48	120
